From patent US20220048967A1 (published 2022)
Numbered stars: 1 amine (or outer) side, 2 acyl side, 3 side chain; on linkers, the order of the positions; unused ones are H or OH. Square brackets hold non-standard residues; d marks the D form. Side chains are listed from the residue outwards. Ends that are not written are not given here. * marks the point of attachment. C20 diacid = O=C(O)CCCCCCCCCCCCCCCCCCC(=O)*; C18 diacid = O=C(O)CCCCCCCCCCCCCCCCC(=O)*; γGlu = O=C(O)[C@H](CCC(=O)[*:2])N[*:1]; AEEA = NCCOCCOCC(=O)O; Aib = CC(C)(N)C(=O)O

T1: human gastric inhibitory peptide receptor (GIPR) (human, UniProt P48546 22-466)
T1 sequence (looked up): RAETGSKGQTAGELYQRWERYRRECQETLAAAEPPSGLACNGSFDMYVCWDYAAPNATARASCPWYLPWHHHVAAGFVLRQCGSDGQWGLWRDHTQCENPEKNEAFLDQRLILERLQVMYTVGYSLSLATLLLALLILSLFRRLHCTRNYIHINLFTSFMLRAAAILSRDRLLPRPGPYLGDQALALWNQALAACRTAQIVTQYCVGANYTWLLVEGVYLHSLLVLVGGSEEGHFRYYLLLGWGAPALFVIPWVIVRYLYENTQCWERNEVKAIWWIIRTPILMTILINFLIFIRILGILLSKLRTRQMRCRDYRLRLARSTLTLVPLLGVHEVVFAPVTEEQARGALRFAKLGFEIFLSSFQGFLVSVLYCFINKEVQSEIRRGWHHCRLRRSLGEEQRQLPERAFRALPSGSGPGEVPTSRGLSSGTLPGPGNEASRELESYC


Tests used:
[1] = biological target: T1, human gastric inhibitory peptide …; assay: cell-based or functional assay
[2] = biological target: human GLP-1 receptor (GLP-1R) (human, UniProt P43220 24-463); assay: cell-based or functional assay

| Binder | hGIPR cAMP EC50 ratio [1] | hGIPR cAMP Rel EC50 [1] [nM] | hGLP1R cAMP EC50 ratio [2] | hGLP1R cAMP Rel EC50 [2] [nM] |
| --- | --- | --- | --- | --- |
| Y[Aib]EGTFTSDYSILLDKK([AEEA-AEEA-γGlu-C18 diacid])AQPAFIEYLIEGG-NH2 (N-terminus assumed; SMILES CC[C@H](C)[C@H](NC(=O)[C@H](CC(C)C)NC(=O)[C@H](Cc1ccc(O)cc1)NC(=O)[C@H](CCC(=O)O)NC(=O)[C@@H](NC(=O)[C@H](Cc1ccccc1)NC(=O)[C@H](C)NC(=O)[C@@H]1CCCN1C(=O)[C@H](CCC(N)=O)NC(=O)[C@H](C)NC(=O)[C@H](CCCCNC(=O)COCCOCCNC(=O)COCCOCCNC(=O)CC[C@H](NC(=O)CCCCCCCCCCCCCCCCC(=O)O)C(=O)O)NC(=O)[C@H](CCCCN)NC(=O)[C@H](CC(=O)O)NC(=O)[C@H](CC(C)C)NC(=O)[C@H](CC(C)C)NC(=O)[C@@H](NC(=O)[C@H](CO)NC(=O)[C@H](Cc1ccc(O)cc1)NC(=O)[C@H](CC(=O)O)NC(=O)[C@H](CO)NC(=O)[C@@H](NC(=O)[C@H](Cc1ccccc1)NC(=O)[C@@H](NC(=O)CNC(=O)[C@H](CCC(=O)O)NC(=O)C(C)(C)NC(=O)[C@@H](N)Cc1ccc(O)cc1)[C@@H](C)O)[C@@H](C)O)[C@@H](C)CC)[C@@H](C)CC)C(=O)N[C@@H](CCC(=O)O)C(=O)NCC(=O)NCC(N)=O) [Example 275] | < 0.00741 | > 30 | 0.00357 | 14 |
| Y[Aib]EGTFTSDYSILLDKK([AEEA-AEEA-γGlu-C18 diacid])AQHAFIEYLIEGG-NH2 (N-terminus assumed; SMILES CC[C@H](C)[C@H](NC(=O)[C@H](CC(C)C)NC(=O)[C@H](Cc1ccc(O)cc1)NC(=O)[C@H](CCC(=O)O)NC(=O)[C@@H](NC(=O)[C@H](Cc1ccccc1)NC(=O)[C@H](C)NC(=O)[C@H](Cc1c[nH]cn1)NC(=O)[C@H](CCC(N)=O)NC(=O)[C@H](C)NC(=O)[C@H](CCCCNC(=O)COCCOCCNC(=O)COCCOCCNC(=O)CC[C@H](NC(=O)CCCCCCCCCCCCCCCCC(=O)O)C(=O)O)NC(=O)[C@H](CCCCN)NC(=O)[C@H](CC(=O)O)NC(=O)[C@H](CC(C)C)NC(=O)[C@H](CC(C)C)NC(=O)[C@@H](NC(=O)[C@H](CO)NC(=O)[C@H](Cc1ccc(O)cc1)NC(=O)[C@H](CC(=O)O)NC(=O)[C@H](CO)NC(=O)[C@@H](NC(=O)[C@H](Cc1ccccc1)NC(=O)[C@@H](NC(=O)CNC(=O)[C@H](CCC(=O)O)NC(=O)C(C)(C)NC(=O)[C@@H](N)Cc1ccc(O)cc1)[C@@H](C)O)[C@@H](C)O)[C@@H](C)CC)[C@@H](C)CC)C(=O)N[C@@H](CCC(=O)O)C(=O)NCC(=O)NCC(N)=O) [Example 295] | 0.481 | 0.281 | 0.398 | 0.116 |
| Y[Aib]EGTFTSDYSILLDKK([AEEA-AEEA-γGlu-C20 diacid])AQ[Aib]AFIEYLIAGGPSSGAPPPS-NH2 (N-terminus assumed; SMILES CC[C@H](C)[C@H](NC(=O)[C@H](CC(C)C)NC(=O)[C@H](Cc1ccc(O)cc1)NC(=O)[C@H](CCC(=O)O)NC(=O)[C@@H](NC(=O)[C@H](Cc1ccccc1)NC(=O)[C@H](C)NC(=O)C(C)(C)NC(=O)[C@H](CCC(N)=O)NC(=O)[C@H](C)NC(=O)[C@H](CCCCNC(=O)COCCOCCNC(=O)COCCOCCNC(=O)CC[C@H](NC(=O)CCCCCCCCCCCCCCCCCCC(=O)O)C(=O)O)NC(=O)[C@H](CCCCN)NC(=O)[C@H](CC(=O)O)NC(=O)[C@H](CC(C)C)NC(=O)[C@H](CC(C)C)NC(=O)[C@@H](NC(=O)[C@H](CO)NC(=O)[C@H](Cc1ccc(O)cc1)NC(=O)[C@H](CC(=O)O)NC(=O)[C@H](CO)NC(=O)[C@@H](NC(=O)[C@H](Cc1ccccc1)NC(=O)[C@@H](NC(=O)CNC(=O)[C@H](CCC(=O)O)NC(=O)C(C)(C)NC(=O)[C@@H](N)Cc1ccc(O)cc1)[C@@H](C)O)[C@@H](C)O)[C@@H](C)CC)[C@@H](C)CC)C(=O)N[C@@H](C)C(=O)NCC(=O)NCC(=O)N1CCC[C@H]1C(=O)N[C@@H](CO)C(=O)N[C@@H](CO)C(=O)NCC(=O)N[C@@H](C)C(=O)N1CCC[C@H]1C(=O)N1CCC[C@H]1C(=O)N1CCC[C@H]1C(=O)N[C@@H](CO)C(N)=O) [Example 288] | 1.2 | 0.0732 | 0.393 | 0.172 |
| YXEGTFTSDYSIXLDKKAQXEFIEYLIAGGPSSGAPPPS (Aib2, αMeL13, (2-[2-(2-Amino-ethoxy)-ethoxy]-acetyl)2-(γ-Glu)-CO-(CH2)18-CO2H on K17, Aib20, C-terminal NH2) [Example 289] | 4.13 | 0.0228 | 1.33 | 0.0544 |
| XXEGTFTSDYSIXLDXKAQXAFIXYLIAGGPSSGAPPPS (D-Tyr1, Aib2, αMeL13, Orn16, (2-[2-(2-Amino-ethoxy)-ethoxy]-acetyl)2-(γ-Glu)-CO-(CH2)18-CO2H on K17, Aib20, D-Glu24, C-terminal NH2) [Example 291] | 0.746 | 0.118 | 0.188 | 0.15 |
| XXEGTFTSDYSIXLDXKAQXEFIEXLIAGGPSSGAPPPS (D-Tyr1, Aib2, αMeL13, Orn16, (2-[2-(2-Amino-ethoxy)-ethoxy]-acetyl)2-(γ-Glu)-CO-(CH2)18-CO2H on K17, Aib20, αMeY25, C-terminal NH2) [Example 293] | 1.36 | 0.0562 | 0.197 | 0.132 |
| XXEGTFTSDYSIXLDKKAQXEFIEYLIAGGPSSGAPPPS (D-Tyr1, Aib2, αMeL13, (2-[2-(2-Amino-ethoxy)-ethoxy]-acetyl)2-(γ-Glu)-CO-(CH2)18-CO2H on K17, Aib20, C-terminal NH2) [Example 290] | 1.09 | 0.0629 | 0.279 | 0.179 |
| XXEGTFTSDYSIXLDKKAQXEFIEXLIAGGPSSGAPPPS (D-Tyr1, Aib2, αMeL13, (2-[2-(2-Amino-ethoxy)-ethoxy]-acetyl)2-(γ-Glu)-CO-(CH2)18-CO2H on K17, Aib20, αMeY25, C-terminal NH2) [Example 292] | 1.1 | 0.0682 | 0.143 | 0.183 |
| Y[Aib]EGTFTSDYSILLDKK([AEEA-AEEA-γGlu-C18 diacid])AQQAFIEYLIEGG-NH2 (N-terminus assumed; SMILES CC[C@H](C)[C@H](NC(=O)[C@H](CC(C)C)NC(=O)[C@H](Cc1ccc(O)cc1)NC(=O)[C@H](CCC(=O)O)NC(=O)[C@@H](NC(=O)[C@H](Cc1ccccc1)NC(=O)[C@H](C)NC(=O)[C@H](CCC(N)=O)NC(=O)[C@H](CCC(N)=O)NC(=O)[C@H](C)NC(=O)[C@H](CCCCNC(=O)COCCOCCNC(=O)COCCOCCNC(=O)CC[C@H](NC(=O)CCCCCCCCCCCCCCCCC(=O)O)C(=O)O)NC(=O)[C@H](CCCCN)NC(=O)[C@H](CC(=O)O)NC(=O)[C@H](CC(C)C)NC(=O)[C@H](CC(C)C)NC(=O)[C@@H](NC(=O)[C@H](CO)NC(=O)[C@H](Cc1ccc(O)cc1)NC(=O)[C@H](CC(=O)O)NC(=O)[C@H](CO)NC(=O)[C@@H](NC(=O)[C@H](Cc1ccccc1)NC(=O)[C@@H](NC(=O)CNC(=O)[C@H](CCC(=O)O)NC(=O)C(C)(C)NC(=O)[C@@H](N)Cc1ccc(O)cc1)[C@@H](C)O)[C@@H](C)O)[C@@H](C)CC)[C@@H](C)CC)C(=O)N[C@@H](CCC(=O)O)C(=O)NCC(=O)NCC(N)=O) [Example 294] | 0.75 | 0.183 | 0.249 | 0.185 |
| Y[Aib]EGTFTSDYSILLDKK([AEEA-AEEA-γGlu-C18 diacid])AQKAFIEYLIEGGPSSG-NH2 (N-terminus assumed; SMILES CC[C@H](C)[C@H](NC(=O)[C@H](CC(C)C)NC(=O)[C@H](Cc1ccc(O)cc1)NC(=O)[C@H](CCC(=O)O)NC(=O)[C@@H](NC(=O)[C@H](Cc1ccccc1)NC(=O)[C@H](C)NC(=O)[C@H](CCCCN)NC(=O)[C@H](CCC(N)=O)NC(=O)[C@H](C)NC(=O)[C@H](CCCCNC(=O)COCCOCCNC(=O)COCCOCCNC(=O)CC[C@H](NC(=O)CCCCCCCCCCCCCCCCC(=O)O)C(=O)O)NC(=O)[C@H](CCCCN)NC(=O)[C@H](CC(=O)O)NC(=O)[C@H](CC(C)C)NC(=O)[C@H](CC(C)C)NC(=O)[C@@H](NC(=O)[C@H](CO)NC(=O)[C@H](Cc1ccc(O)cc1)NC(=O)[C@H](CC(=O)O)NC(=O)[C@H](CO)NC(=O)[C@@H](NC(=O)[C@H](Cc1ccccc1)NC(=O)[C@@H](NC(=O)CNC(=O)[C@H](CCC(=O)O)NC(=O)C(C)(C)NC(=O)[C@@H](N)Cc1ccc(O)cc1)[C@@H](C)O)[C@@H](C)O)[C@@H](C)CC)[C@@H](C)CC)C(=O)N[C@@H](CCC(=O)O)C(=O)NCC(=O)NCC(=O)N1CCC[C@H]1C(=O)N[C@@H](CO)C(=O)N[C@@H](CO)C(=O)NCC(N)=O) [Example 296] | 0.564 | 0.198 | 0.82 | 0.0867 |
